Results taken from patent US20250376536A1 (Bristol-Myers Squibb, published 2025).

Legend:
human CD40 on cells [1] = biological target: T1, human CD40 on cells (human, UniProt P25942 21-277); test: binding to human CD40-positive macrophages
T1 construct: Endogenous CD40 on human primary cells and Raji cells; also called CD40-positive macrophage; CD40-positive B cell

cyno FAP on HEK cells = biological target: T2, cyno FAP on HEK cells (cynomolgus monkey); test: binding to cyno FAP-positive HEK cells
T2 construct: whole, on cells; also called Cyno FAP-positive HEK cells

human FAP protein = biological target: T3, human FAP protein (human, UniProt Q12884 26-760); test: SPR
T3 sequence: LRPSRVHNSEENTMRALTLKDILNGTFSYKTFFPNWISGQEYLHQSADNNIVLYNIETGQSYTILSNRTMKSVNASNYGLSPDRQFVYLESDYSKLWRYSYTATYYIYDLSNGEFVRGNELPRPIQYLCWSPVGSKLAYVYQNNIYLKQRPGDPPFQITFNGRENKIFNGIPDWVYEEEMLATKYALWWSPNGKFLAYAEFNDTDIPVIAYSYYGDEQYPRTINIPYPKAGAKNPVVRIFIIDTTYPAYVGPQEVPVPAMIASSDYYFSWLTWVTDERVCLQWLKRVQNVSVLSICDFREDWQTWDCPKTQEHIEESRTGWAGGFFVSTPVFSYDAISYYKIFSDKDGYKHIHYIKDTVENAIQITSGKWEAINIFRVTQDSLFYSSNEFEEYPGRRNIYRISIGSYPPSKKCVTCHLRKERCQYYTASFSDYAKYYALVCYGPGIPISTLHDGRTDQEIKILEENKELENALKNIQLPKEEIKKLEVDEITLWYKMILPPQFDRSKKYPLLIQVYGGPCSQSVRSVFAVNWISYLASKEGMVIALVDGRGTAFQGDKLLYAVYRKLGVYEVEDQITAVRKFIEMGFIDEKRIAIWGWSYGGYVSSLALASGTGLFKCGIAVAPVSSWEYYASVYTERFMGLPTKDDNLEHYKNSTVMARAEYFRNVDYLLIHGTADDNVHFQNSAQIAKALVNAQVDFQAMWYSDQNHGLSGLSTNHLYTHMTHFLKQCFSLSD
Procedure: CD40.9H3×FAP.LP62 and an analog of RO7300490 (see SEQ ID NOs: 39-42) binding to human and cynomolgus (cyno) CD40 and FAP was evaluated by surface plasmon resonance (SPR) using human and cyno CD40 and FAP proteins. […] The rates of association and dissociation of CD40.9H3×FAP.LP62 and the analog of RO7300490 to human CD40 and FAP are summarized in Table 2.

human CD40 on cells [2] = biological target: T1, human CD40 on cells; test: binding to human CD40-positive B cells
FcγRIIA (CD32a) = biological target: T4, FcγRIIA (CD32a) (UniProt P12318 34-217, limits assumed); test: SPR, Biacore S200, antibody captured on Protein A chip, FcγR as analyte
T4 sequence (looked up): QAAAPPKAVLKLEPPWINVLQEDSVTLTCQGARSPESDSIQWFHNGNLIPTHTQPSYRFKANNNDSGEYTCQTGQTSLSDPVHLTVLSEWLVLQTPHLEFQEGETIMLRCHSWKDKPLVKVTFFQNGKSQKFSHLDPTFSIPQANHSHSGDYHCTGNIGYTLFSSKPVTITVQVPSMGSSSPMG
Procedure: (§1) Binding of CD40.9H3×FAP.LP62 and the analog of RO7300490 to various Fc gamma receptors (FcγR1 (CD64), FcγRIIIA (CD16a), FcγRIIIB (CD16b), FcγRIIA (CD32a), FcγRIIB (CD32b)) was determined in an analyte/capture assay in vitro. Briefly, an SPR assay was performed using a Biacore S200 with a Biacore Series S Protein A chip (Cytiva). All antibodies were prepared at 4.0 μg/ml in 1×HBS-EP+ running buffer (Cytiva) and captured onto flow cells 2, 3, and 4 through a 60 second contact time at 10 μl/min. An analyte series of the FcγRs (BMS In-House Produced) were prepared at 10,000 nM in 1×HBS-EP+ with eight, three-fold dilutions. Kinetic measurements were conducted with a 120 second association followed by a 120 second dissociation at 30 μl/min. Surface regeneration was preformed by 60 second contact time of 50 mM Glycine pH 1.5 solution (Cytiva) at 30 μl/min. Data was processed in Biacore Insight Evaluation Version 5 (Cytiva). Sensorgrams were double referenced and globally fit to a 1:1 Langmuir model were applicable. Where 1:1 model was not sufficient to describe the interaction (fast-on and fast-off rates), steady state equilibrium fitting was used to determine the equilibrium constant.

FcγRIIIB (CD16b) = FcγRIIIB (CD16b) (UniProt O75015 17-200, limits assumed); test: as above
Procedure: as §1

FcγRI (CD64) = biological target: T5, FcγRI (CD64) (UniProt P12314 16-288, limits assumed); test: as above
T5 construct: also called FcγR1 (CD64); FcγR1
Procedure: as §1

FcγRIIIA (CD16a) = FcγRIIIA (CD16a) (UniProt P08637 17-208, limits assumed); test: as above
Procedure: as §1

FcγRIIB (CD32b) = biological target: T6, FcγRIIB (CD32b) (UniProt P31994 43-217, limits assumed); test: as above
T6 sequence (looked up): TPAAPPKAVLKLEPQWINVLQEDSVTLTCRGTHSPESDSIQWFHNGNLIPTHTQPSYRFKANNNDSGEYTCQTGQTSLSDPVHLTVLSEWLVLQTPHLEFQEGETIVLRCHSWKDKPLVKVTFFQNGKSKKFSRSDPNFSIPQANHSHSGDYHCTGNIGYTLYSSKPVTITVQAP
Procedure: as §1

T1 sequence (P25942 21-277): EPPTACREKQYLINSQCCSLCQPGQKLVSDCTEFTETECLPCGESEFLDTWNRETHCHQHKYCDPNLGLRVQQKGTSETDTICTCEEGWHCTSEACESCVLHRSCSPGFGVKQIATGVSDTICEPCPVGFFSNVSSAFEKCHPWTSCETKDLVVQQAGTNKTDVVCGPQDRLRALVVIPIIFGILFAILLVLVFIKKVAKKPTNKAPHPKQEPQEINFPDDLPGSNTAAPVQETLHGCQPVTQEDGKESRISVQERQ
FcγRIIIB (CD16b), sequence (O75015 17-200 limits assumed): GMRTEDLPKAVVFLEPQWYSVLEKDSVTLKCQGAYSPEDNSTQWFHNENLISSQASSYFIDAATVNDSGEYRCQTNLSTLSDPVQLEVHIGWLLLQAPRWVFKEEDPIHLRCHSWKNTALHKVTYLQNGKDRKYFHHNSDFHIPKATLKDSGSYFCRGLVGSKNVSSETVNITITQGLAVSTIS
T5 sequence (P12314 16-288 limits assumed): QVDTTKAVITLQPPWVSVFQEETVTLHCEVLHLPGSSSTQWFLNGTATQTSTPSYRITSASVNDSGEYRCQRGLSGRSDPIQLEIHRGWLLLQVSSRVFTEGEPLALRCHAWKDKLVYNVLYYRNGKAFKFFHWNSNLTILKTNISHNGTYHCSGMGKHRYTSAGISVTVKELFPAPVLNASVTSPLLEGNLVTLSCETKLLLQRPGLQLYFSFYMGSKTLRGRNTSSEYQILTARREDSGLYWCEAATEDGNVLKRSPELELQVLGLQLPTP
FcγRIIIA (CD16a), sequence (P08637 17-208 limits assumed): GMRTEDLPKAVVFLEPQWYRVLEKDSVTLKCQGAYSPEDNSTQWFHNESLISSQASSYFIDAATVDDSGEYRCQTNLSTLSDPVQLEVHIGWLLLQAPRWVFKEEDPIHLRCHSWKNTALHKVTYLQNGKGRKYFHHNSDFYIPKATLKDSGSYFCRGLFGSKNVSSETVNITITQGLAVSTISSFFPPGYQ

EC50 (human CD40 on cells [1]): 11.9 nM
EC50 (cyno FAP on HEK cells): 3.6 nM
Kd (human FAP protein): 1.96 nM
koff (human FAP protein): 0.00147 s⁻¹
kon (human FAP protein): 750000 M⁻¹ s⁻¹
EC50 (human CD40 on cells [2]): 7.53 nM
binding result (FcγRIIA (CD32a)): no binding
binding result (FcγRIIIB (CD16b)): no binding
binding result (FcγRI (CD64)): no binding
binding result (FcγRIIIA (CD16a)): no binding
binding result (FcγRIIB (CD32b)): no binding
B1: CD40.9H3×FAP.LP62 bispecific antibody (bispecific antibody, human IgG1, kappa, L234A L235A)
heavy 1: EVQLVESGGGLVQPGGSLRLSCAASGFTFIGYSMNWVRQAPGKGLEWVSYISSYESTIYYADSVKGRFTISRDNAKNSLYLQMNSLRAEDTAVYYCARSRITLVRGVPRYFDLWGRGTLVTVSSASTKGPSVFPLAPSSKSTSGGTAALGCLVKDYFPEPVTVSWNSGALTSGVHTFPAVLQSSGLYSLSSVVTVPSSSLGTQTYICNVNHKPSNTKVDKKVEPKSCDKTHTCPPCPAPEAAGGPSVFLFPPKPKDTLMISRTPEVTCVVVSVSHEDPEVKFNWYVDGVEVHNAKTKPREEQYNSTYRVVSVLTVLHQDWLNGKEYKCKVSNKALPAPIEKTISKAKGQPREPQVYVLPPSREEMTKNQVSLLCLVKGFYPSDIAVEWESNGQPENNYLTWPPVLDSDGSFFLYSKLTVDKSRWQQGNVFSCSVMHEALHNHYTQKSLSLSPG
heavy 2: EVQLVESGGGLVQPGGSLRLSCAASGFTFIGYSMNWVRQAPGKGLEWVSYISSYESTIYYADSVKGRFTISRDNAKNSLYLQMNSLRAEDTAVYYCARSRITLVRGVPRYFDLWGRGTLVTVSSASTKGPSVFPLAPSSKSTSGGTAALGCLVKDYFPEPVTVSWNSGALTSGVHTFPAVLQSSGLYSLSSVVTVPSSSLGTQTYICNVNHKPSNTKVDKKVEPKSCDKTHTCPPCPAPEAAGGPSVFLFPPKPKDTLMISRTPEVTCVVVSVSHEDPEVKFNWYVDGVEVHNAKTKPREEQYNSTYRVVSVLTVLHQDWLNGKEYKCKVSNKALPAPIEKTISKAKGQPREPQVYVYPPSREEMTKNQVSLTCLVKGFYPSDIAVEWESNGQPENNYKTTPPVLDSDGSFALVSKLTVDKSRWQQGNVFSCSVMHEALHNHYTQKSLSLSPGGGSGGGGSGGGGSGGGGSEVQLLESGGGLVQPGGSLRLSCAASGFTFSSRGMSWVRQAPGKCLEWVSFISSSGTYVYYADSVKGRFTISRDNSKNTLYLQMNSLRAEDTAVYYCARDLPRTGVYFGMDVWGQGTTVTVSSGGGGSGGGGSGGGGSGGGGSDIQMTQSPSSLSASVGDRVTITCRASQSIFNYLNWYQQKPGKAPKLLIYGASTLQSGVPSRFSGSGSGTDFTLTISSLQPEDFATYYCQESYSTPYTFGCGTKVEIK
light: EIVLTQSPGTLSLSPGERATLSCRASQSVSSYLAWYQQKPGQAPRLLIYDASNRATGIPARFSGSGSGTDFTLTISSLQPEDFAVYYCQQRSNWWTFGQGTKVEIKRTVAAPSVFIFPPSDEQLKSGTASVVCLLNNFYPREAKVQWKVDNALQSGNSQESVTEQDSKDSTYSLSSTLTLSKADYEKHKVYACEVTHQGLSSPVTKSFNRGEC
notes: 2+1 format: two anti-CD40 9H3 Fabs on an IgG1 Fc with L234A, L235A, D265S and heterodimerization mutations; Ratio 1:1:2
